Reference: PMC2187453

Target: TCGF receptor on B6.1 cells (mouse CTL line B6.1.SF.1) (mouse (endogenous in the B6.1 CTL line))
Test: radioligand binding

T cell growth factor (TCGF), human, biosynthetically radiolabeled (3H-TCGF), sequence (P60568 21-153): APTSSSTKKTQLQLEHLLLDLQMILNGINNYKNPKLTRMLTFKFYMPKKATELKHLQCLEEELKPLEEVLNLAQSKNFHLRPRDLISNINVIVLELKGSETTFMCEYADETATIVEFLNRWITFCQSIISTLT

Kd: 0.022 nM
Sequence: T cell growth factor (TCGF), human, biosynthetically radiolabeled (3H-TCGF) (from UniProt P60568 21-153) (ligand)
